Experimental findings from a protein production outcome set (Wang et al. 2014) are described below.

The data set can be described thus: label from the status in PepcDB records.
Consider “MVLETPVCSPIDKESSSDDVQLNKPPKKKRKLDVVYPPRDNTSSSSDVKPKVPGYCGVKAIGCNRSDELLAEVALHSYNSQTGTNLELMTVTQVMLQSVAHINYHMILDAFDPANNSLSSIEICLWDAAVKNNEKLRLVTTFCSLEGSGDKGSQWDPNGVDVLYTGVMPKWLDDGALSGSEKLHYYEVNDSDLQENKWLHLYAQVGAYSKWDLGMVKHFPLEIKKVVVQTMEDDIESNLKLKSSNAIFYITFTTSGGVECACIIRQTRNGRPQHMCLEINNVEMDK”, for which the protein production entry is given as “failed”.
As for “MSVPLILTLLAGAATFIGAFLGVLGQKPSNRMLAFSLGFAAGIMLLISLMEMLPAALDTEGMSPVLGYGMFIIGLLGYFGLDRLLPHAHPQDLVQKRQQPLPGSIKRTAILLTLGISLHNFPEGIATFVTASSNLELGFGIALAVALHNIPEGLAVAGPVYAATGSKRTAIFWAGISGMAEILGGVLAWLILGSLVSPIVMAAIMAAVAGIMVALSVDELMPLAKEIDPNNNPSYGVLCGMSIMGLSLVILQTIGIG”, the protein production entry was “failed”.
Take “EKIWPRDRSASRERSLSPRSDRRSVASSQPAKPTKVTLVKSRKNEEYGLRLASHIFVKEISQDSLAARDGNIQEGDVVLKINGTVTENMSLTDAKTLIERSKGKLKMVVQRDERATLLNVPDLSDSIHSANASERDDISEIQSLASDH”: the protein production result is listed as “failed”.
On to “MMNGENMDKQTVIGFVVLFCVLELVFYLKKLYQSMALTLAVFGIFSLLFFLLYIPVLSKKAVPYVINYFKPPHQRVREIKVGSDETTDNSIIRLKEKAKTLHPDEGNRISGRSSNSFKDSASCIITIVDDSN”, for which the protein production result is recorded as “failed”.
Consider “MSIVVPAYEEAQSLPELADGVRAACEEAGLSFRLWIIDDGSRDETWEVVRGLCEDDPRVAGVRFRRNYGKSAALAVGFDRVQGRYVATMDADLQDDPDEIPALIDKLEEGGHDLVSGWKKDRKDPLRKTLPSRFFNWVTRLFSGLPLHDFNCGLKVYRRPVVKSIDVYGELHRYIPLLAKWEGYDRVAEKEVQHHPRKYGTTKFGVERFIQGFLDLITVVFLTRYAVRPMHFFGSMGTVAFALGFLVSLWLSFDKLVLGHPIGDRPLLLLGVLLILFGSQMFTTGLLGEMIIRPRMEDPSTYEVAEATGLADEAADVLEG”, for which the protein production result is reported as “failed”.
With “MEYLFLRRKRTTATSERQKTLLFKAAERQWKEEFAGKETDIRKVDCNIYKGILYQLEIRQVFLDTSLSLKKLSALLETNQTYLSNVVNKYFGCNLKELVNTYRVEYAKELLCSRRCALTELPCSCGFASKSAFYSAFSRIVGVSPLSYQTQERRRHHLQAVNLEHHHHHH”, the protein production result is on record as “failed”.
For the sequence “MSQATAKVNREVQAFLQDLKGKTIDHVFFVACGGSSAIMYPSKYVFDRESKSINSDLYSANEFIQRNPVQLGEKSLVILCSHSGNTPETVKAAAFARGKGALTIAMTFKPESPLAQEAQYVAQYDWGDEALAINTNYGVLYQIVFGTLQVLENNTKFEQAIEGLDQLQAVYEKALKQEADNAKQFAKAHEKESIIYTMASGANYGVAYSYSICILMEMQWIHSHAIHAGEYFHGPFEIIDESVPFIILLGLDETRPLEERALTFSKKYGKKLTVLDAASYDFTAIDDSVKGYLAPLVLNRVLRSYADELAEERNHPLSHRRYMWKVEY”, the protein production result is listed as “not failed”.
Under “MMRIGLFLLTNLAVLVVAGIILSLFGVGSYHGAGGLNLGNLLVICFVFGMVGSLISLLMSKWMAKKTTGTEIIDPNAPRNQAEAWLLQTVAELSQRAGIQMPEVGIFPSYQSNAFATGWNKNDALVSVSTGLMERMNKDELRAVLAHEIGHVANGDMVTLALIQGVVNAFVMFFARVVGDFIDRNVFGRQDGEAPGMGYFAITIVLDIVFGILASAIVMWFSRHREYRADEAGARLAGKQAMISALLRLQAESEMPDQMPKEMKAFAIAEGKEQGFSLAALFQTHPSIEQRVAALQQLNCP” stands “failed”; under “MLEKNKPENHATDKHGLLSAPIPETLRKMTVPMTMGMIAILMFNLVDTFFISLLGTHALAAISYTFPVTFAVNCITMGIGMGLSTNIGRLLGQGHAPQAARFTTHGLLLAVLLVAIASSIGFATIAPLFRFLGATDDLIPLIEQYMQVWYLTIPLLVIPMAGNSAIRATGDTKTPAKIMMLAGLINGMLDPLLIFGYGPFPELGIQGAAIASAFSWLGALCGSFYVLVKREKLLAQPQWASLKQDWQQTLKIGTPAALSNAMNPLSGAILMMLLSSHGTAAVAAYGAAQRIESILILVLMSLTSALTPFMAQNLGAKNPQRAFSGLFLSMRFAVVFQGFIFLMMVPLSIPLAALFSQEETVKNLLWHYLLVVPFSYGFQGIVMMLVSGLNAMHKPLRAFQWSFMRLFVFTLPAAWVGSQVYSIEGLFIGIALGNTLGGLLGYMFALRERKLTLIEQNSAS”, “failed”.
“MESLTLQPIELISGEVNLPGSKSVSNRALLLAALASGTTRLTNLLDSDDIRHMLNALTKLGVNYRLSADKTTCEVEGLGQAFHTTQPLELFLGNAGTAMRPLAAALCLGQGDYVLTGEPRMKERPIGHLVDALRQAGAQIEYLEQENFPPLRIQGTGLQAGTVTIDGSISSQFLTAFLMSAPLAQGKVTIKIVGELVSKPYIDITLHIMEQFGVQVINHDYQEFVIPAGQSYVSPGQFLVEGDASSASYFLAAAAIKGGEVKVTGIGKNSIQGDIQFADALEKMGAQIEWGDDYVIARRGELNAVDLDFNHIPDAAMTIATTALFAKGTTAIRNVYNWRVKETDRLAAMATELRKVGATVEEGEDFIVITPPTKLIHAAIDTYDDHRMAMCFSLVALSDTPVTINDPKCTSKTFPDYFDKFAQLSR”: the protein production result is “not failed”.
With “MIPVFNITSNRGRLLQQISVGDIWGVGRQWANKLISRGIHTAYDLAMTNPHLLKKCFNAVLMRTAMELQGIACGGLEVLEHHHHHH”, the protein production entry is on record as “failed”.
With “LERAKLVSIDRVIDDLSRNIDIEEVSQALAGQVIIDIRHPDAQEDQPLQVPGVEIQTLPFYALNSRFKALDDTRQYLLYCDKGVMSRLHAHHLLSEGHANVRVY”, the protein production entry is recorded as “failed”.
Take “FANTATVAVSQIVEHPALDATRQGLLDGLKAKGYEEGKNLEFDYKTAQGNPAIAVQIARQYVGESPDVLVGIATPSAQALVSATRTIPVVFTAVTDPVGAKLVKSMKQPGKNVTGLSDLSPVAQHVELIQEILPQVKSIGVVFNPGEANAVTLVNLLKESAEAKGIKVVEATALKSADVQSATQAIAAKSDILYAPTDNTVASAIEGMIVAANQAKKPVFGGATSYVEKGAIAGLGFDYYQVGVQTADYVAAILDGQEPGKLDVKVATGSDLVINESAASKLGIQLPSSVVQRATSMQ”: the protein production entry is reported as “failed”.
For the sequence “MIIRIKHYGEVKIEDSKNLLLNLIENRIGIDNICNGKGTCGKCKVRFRQGVPEATSADLRYLSVEELEEGVRLACQVKPQKGMEIDVTLSNSFDRKLEHHHHHH”, the protein production result is “not failed”.
As to “MSSTLWIFYDQYVQRATVDGLPTFIGPGEQATLRISSLKNDIQVRDQDGQCLIMTDGEELHTLPSGESCELTIDGKPYSFLYVGEAPSEKKYYMGHANLVTISNEPSANIVLPSDIEMDCTLLCERKEWTLYPKEGTQAPYVNGRKVSIPTQIVDGDEMLFGRVLLKIIEGNILVVESNETYETTLTQVETPTSLMQQQYPIYRRTPRMIYEQPTDKVEFSMPSEEIDDVGRPLWMILLPPVAIIVIMVTISIVFQRTWMLFMSVPIMTVMAVVATTMFFREKKKRKQKEEKRKRVYSRYLEVKRDELQALADAQRHALMYHFPTFEQMKNKARRVSSRIWERTIDNNDFLDIRIGRSSVPASFELNQPSDELSNRDRDELMDDFDRFREKYSHLENAPLRLSVARGALGYVGKPSIVEREVSQIIGQLAFAHSYHDLRFVAILNEEQRKKWEWMNWLPHFQLPGTEAKGFIYDEKACDHILNPLYHMLRERDLAQKETVEKKREKKRFLPHIVFFVANRSLIAEHGIMEYLEGKDKELGFTVIFLTDVAQNLNEHVHTIVKAVNRNEGEIVLLRNISIHKRFQFDAYDPASNENYARMLPSLHHQQGMTRSIPDMVSFMEMFPGVIQAKDLEIKKRWQTNDSTKSLAVPIGLKAKDELLELDAHEKMHGPHGLLAGTTGSGKSEFLQTYILSLAVNYHPHEVAFLLIDYKGGGMAQPFKGMPHLLGVITNIAESENFSARALASIRSELKKRQRLFDEHTVNHINDYTELYKAGTAKEPMPHLFIISDEFAELKNEEPEFIKELVSAARIGRSLGVHLLLATQKPSGVVDGQIWSNSRFRIALKVQNATDSREILKNEDAAYIKETGRGYLQIGSNEQYDLFQSAWSGAQYLRSAHDGEEEIAYVTDLGLKLVSRAEIKEDREQESITEIEAVVNEIAATTDELAIVPAKSPWLDPLEERIFYEATSSEDEAQAFPFALADDPENQRQFPICYDWGKSGNLMIFGTSGYGKSTTLLTLLLAFAEKRSPEQANYYVLDFGNGALLPLRQLRHTGDYIKMDEGRKLEKLIDYIEKEMERRSELFMEREVSNISVYNEVSDEPLPSIFIVIDNYDILPEEFSDQAPAFTRFARDGQSRGIYVFATVTARNAVKPVLLNSMNMKICHYMIEKTDLTSLLGRVPFAIESVPGRMIVAKDKNWLAHTYLPAKGENDFEVIENVKARIQTINDRYEDSKLPKSMAMLPKTLTLTGLRERIKEEPRLGIPLGLNEETVQPVYIDQDAGAHMVIAGEPKRGKSNVLKVILSFYFETDVEKIVLCDGVDRPLFDFSRKDKALYPTNAEELQHAVEELKQVMEERRMQYDEALQAGTEIPQFRPYLFVIDSFNEFKKMLGVSKEPAFAEMMQLYGHLEFRVIVAADHKDVSLGRGGVMGELKSARQLVLLVKKSAQSLVSFTHDRTEKLEDGFGYHVVNGRDTKIKIPEVVKEEAFIHS”, the protein production result was “failed”.
To “MPHQKIYLVGAGIEGWEGFGAKALEVIGKAEVLVGHKRHLDIFSDFTGKKQELGDLSILLEQLRSTDKRTVVLGSGDPNFFGIARFLLRNLPKERIEIFPNVTSVQYAFAQIKEPWDDAIFVSVHGRGLKGAVDRIVAAEKVAVLTDKTNSPAAIARELIARGAEGYEAWLCENLGLPGEKFTRTDVKGLLELPAAELNILILIKAWEPQLAQYPVIGIDDDEFATAKKLITKQEVRAVTLSKLRLQDDLVMWDIGAGSASVSIEASNLMPNGRIFALERNPQYLGFIRDNLKKFVARNVTLVEAFAPEGLDDLPDPDRVFIGGSGGMLEEIIDAVDRRLKSEGVIVLNAVTLDTLTKAVEFLEDHGYMVEVACVNVAKTKGLTEYKMFESHNPVYIITAWKSDE” belongs “failed”.
For “MFQRKTLQRRNLKGLNLNLHPDVGNNGQLQEKTETHQGQSRIEGHVMSNINAIQNNSNLFLRRGIKKKLTLDAFGDDQAISKPNTVVIQQPQNEPVLVLSSLSQSPCVSSSSSLSTPCIIDAYSNNFGLSPSSTNSTPSTIQGLSNIATPVENEHSISLPPLEESLSPAAADLKDTLSGTSNGNYIQLQDLVQLGKIGAGNSGTVVKALHVPDSKIVAKKTIPVEQNNSTIINQLVRELSIVKNVKPHENIITFYGAYYNQHINNEIIILMEYSDCGSLDKILSVYKRFVQRGTVSSKKTWFNELTISKIAYGVLNGLDHLYRQYKIIHRDIKPSNVLINSKGQIKLCDFGVSKKLINSIADTFVGTSTYMSPERIQGNVYSIKGDVWSLGLMIIELVTGEFPLGGHNDTPDGILDLLQRIVNEPSPRLPKDRIYSKEMTDFVNRCCIKNERERSSIHELLHHDLIMKYVSPSKDDKFRHWCRKIKSKIKEDKRIKREALDRAKLEKKQSERSTH”, the protein production result was “failed”.
Regarding “MIQITVVQIDNYGPWTVTPNPRRESDLQALQSRLYCDMNLQFGAHKGLAFYTRFDNIIAITNGIDLETHKRIQNSVKNRYPFTVSMAVASAETAYEAQKLATKTIQEYGSAQDDVRKEVLDVANEFVSNGYVQLAHVDINDITGKLTDLETAYDTYLSVQKTKLKLMEELKKYDSLGFFIGGDNFMCPCNGMNEKDFLCMFEDIKDSCGIELKAGIGIGKTAEDASNLADIGLEVIREGKTDSQVYTLKQEIDEQKNVPYNYMCPI”, the protein production result was “failed”.
